Reference: the DeepSol protein solubility set

Assay: soluble on expression in E. coli; label from the status in PepcDB or PDB records

Row | Sequence | soluble on expression in E. coli
1 | MPPVCGRRCSRTGEIRGYSGSIVRRWKRVETRDGPRFRSSLAPHEAALLKNLAGAMIGLLDDRDSSSPSDELEEITGIKTGHAQRPGDPTLRRLLPDFYRPDDLDDDDPTAVDGSESFNAALRSLHEPEIIDAKRVAAQQLLDTVPDNGGRLELTESDANAWIAAVNDLRLALGVMLEIGPRGPERLPGNHPLAAHFNVYQWLTVLQEYLVLVLMGSR | not soluble
2 | MGSDKIHHHHHHMTDQTRFFDEMTGGAPQARGPYQPYDAWFQGEDLDEIRKKSAEAEGFFRRTGITFNVYGQTEADERLIPFDVVPRIISGREWTRLTRGIEQRVRALNAFLYDIYHRQEILRAGRVPRELIDGNEAFLPQMMGVAPPGGIYTHIVGTDLVRTGEDEFFVLEDNARTPSGVSYMLENRETMLQMFPDLFSRIKVRPVQNYPANLRRSLAACAPNACTGECTVAVLTPGIHNSAYFEHAFLADQMGVELVEGHDLRVKDGRIAMRTTEGYKAIDVLYRRVDDDFLDPLNFNPDSMLGVPGIMDVYRAGGITIANAPGTGISDDKALYSYMPDIIEFYTGEKALLQNVPTHRCSEPEALKYVLDNLAELVVKEVHGSGGYGMLVGPAASKTEIEAFRKKLEANPSNYIAQPTLALSTCPILTEAGLAPRHVDLRPFVLMAPNKTTITPGGLTRVALAEGSLVVNSSQGGGTKDTWVLED | not soluble
3 | MTLTTTLTTGLALLLAAQALPAPASAAPAAVGSVTIGWADATHELIKITWTETTAAANTLTLHTDDPETAAVRFGTTTADQPNEYLVDPTQLGYTADPRHTSWILVSDGTATTARSVDFDRFHHAQRGAALSFAGDRVRWTAPADTSVDGTPGDPLDLPKAYTYQPMQRVDDDPVGNYECKDTELPATTERTGLVPNPGTAYDLFLTMTNEWGTADVGYLQVGTTQTVTADGPAATAYGATTTIKGHAEGTVMFEQGRPPVCDEVRVDLSNQPLTVQQRTSSTAPWTVVGTVRTTVNGDYTAVVKNPGHRQYRVVRPNTAAFESAWYGGTSGVITVRSLTRVVSAKFIQPVVRLGTRPQAYLWVDPAGTQKAALQFRNAAGAWQGVTYKTLYAGRGLVSFPWNRRGTTRFRWWVPASGGAESVVSPVFTVTVT | not soluble
4 | MTDQMRDMIAQLMGSQHVDNKEKPSMPFDHHSVCRAFLLGVCPHDMVPDSRLQNVVSCRKVHEPAHKADYERAQKEKDHFYDVDAFEIIEHAVHLVDIEIAKVREKLEDDVKTQTSQAADSKAKQVAEIEEKIAKNVDDIEKLGNEGKIEESMKLHKYVEELREKIQEIEDSQTEVKTAGPGSNSAKLRVCEDCGAQLNITDHESRIADHYNGKMHIGMVETRETYLKMKETIDERRKEREEKLGSQRGYQRRESYGRRDRGGDRGEYRGDRDRDRRNRDRSRSRDRSYRRDDRGDRRYDRDNRDRRDRDRRY | not soluble
5 | MPATTSIPPVTAPGTGGEASSFNVDELIQYVLQGKPLSEPQVARLCQKAREVLEKEENVHTVRAPVTVCGDIHGQFHDLLELLKIGGLPPDTNYLFMGDYVDRGYYSVETVTLLLLFKIRYPERVQILRGNHESRQITQVYGFYDECVRKYGSANVWKLLTDLFDYLPLAAVVENEIFCLHGGLSPTLDSLAHIRSLERVQEVPHEGPMCDLLWSDPEDKDGWGISPRGAGFTFGADITEQFCHNNGLKTIARAHQLVAEGYSWAHSDKLVTIFSAPNYCYRCGNLAGLLELDEHMNKCFFQFDPAPRRGEAQVSKKTPDYFL | not soluble
6 | MSLKVVSVDTLCCDAGWRNYHFVKLTTDEGIVGWSEFDEGFGSPGVTAVIEQLGKRLVGASVMEHERFFAEAYCLTRPATGGVVSEGIGAIENALLDAKAKTLNVPCYELLGGKLRDRVPVYWSHCPTWRINHPKFFGPPVTDLDGVKRTAEEARERQFRAIKTNIFIHDDGPLHAWRPGFAVPFQPALNVDRKVLRNLRAHLEALRDGAGPDVEILLDLNFNAKPEGYLKILRELADFDLFWVEIDSYSPQGLAYVRNHSPHPISSCETLFGIREFKPFFDANAVDVAIVDTIWNGVWQSMKIAAFADAHDINVAPHNFYGHLCTMINANFAAAVPNLRIMETDIDRLAWEDELFTHAPEYQNGELIIPDRPGWGTDPVEEAILAHPPKVMGGLLQYKRSEGHHHHHH | soluble
7 | MTGALAMMPSTSSPYPLLAPPTCSSRLPPLRCFVGLRWSAPRIQVREYPDAVAGIAKGAGGRGGRFRAPASSISQPCSRTIIITNEHVQNADFPPNYSKREKKPFPIPVLELRRRAKERAKKAEGKPKRSLPPPKNGMLIKRLIPVAYKVYNARILLINNLKRLMKVIPVKGCKHCSEIHVGSVGHPFRTCKGMSSDKRRGQHDWGGTLVEAVFVPVEAYHLEDRLGKRIPHDQRFAVPRIPALVELCIQAGVNLPEYPTKRRRKPIIKIGKNEFVDANEDDLPDPEPYKLEHPILEELNDNEIIAPASPEEIVALAEETLEAWEVVRDGALKLMKGYAVRVCGYCPEVHIGASGHKARNCGAFKHQQRNGQHGWQAAVLDDLIPPRYVWHLPESGEDLQRDLKSFYGQAPAIVEICVQAGAKVPEKYKATMRLDIGIPTSLREAEMVV | not soluble
8 | MKHVKKEKAEKLEKERQRHIGKPLLGGPFSLTTHTGERKTDKDYLGQWLLIYFGFTHCPDVCPEELEKMIQVVDEIDSITTLPDLTPLFISIDPERDTKEAIANYVKEFSPKLVGLTGTREEVDQVARAYRVYYSPGPKDEDEDYIVDHTIIMYLIGPDGEFLDYFGQNKRKGEIAASIATHMRPYRKKS | soluble
9 | MDANEKKEVIKKKYQEIAILGGSCCSGGCCGDSNSTDLSRSLGYSESDVQAVPDANMGLGCGNPTAFAELKPGDVVLDLGSGGGFDCFLAAQKIGSSGKVIGVDMTLEMVEKAQANARKYGYSNVEFRHGDIESLPVKDSSVDVIISNCVINLAPDKEKVFREAFRVLKPEGRMYISDMVLLDELPEELKNDSELLAGCIAGAVLKEEYLGLLKKAGFSVEILNEDLDISKRQYRDLPVESLKLKARVLEHHHHHH | soluble
10 | MLIGIDVGGTTTDAVLIRNGEVYSTAKVPTEPGDLLKSLLGALDEVSRGVPPEQFERVVFSTTVITNLIAEGKTERVALLLIPGPGVNPASYVFPDSFCIKGAMDYRGREIQPIDEEEVRGTVSRIRDQGFLRVAVVSKFGQRNPSHELRIEEIIREMH | not soluble
11 | RDISVMVLLDLSESTNNQVNGQEFTVLDLTRQATVLLADAINRIGDPFAIHGFCSDGRHDVEYYRFKDFDQPYNEVPKMRLAGMTGQLSTRMGAAIRHASHFLKLQRAAKKLLLVITDGEPADVDVRDPQYLRFDTKKAVEEAGRSGILTYCMSLDPRADQYVSRIFGMRNYMVVDHVERLPEKLPMLYAGLTR | not soluble
12 | MGSDKIHHHHHHMASFIASDQDVKNFLTAPSMNDQEGIGFAYATDEAVLKALIPAPLKLMAPVVCGYVVHMGKPTFSAPYLEESLFALVSYKDKMMGAYPINLLLHGPGAESGVIAGREGAGIPKKLADDIELRRNDNSATATVERHGKTLLNVSWTAGELNDPSIMKQFAGQLALGKEAEMNSFFYKYDIDQHEDGTNHFSNVQLVATQLRSLADQVEPGNLSIQLESTDDDPFGELKVLKPLGAAWFHFDTSVMFNTLKLDEVDAATTMPKLLTGRYDRSFFNPKAATYII | not soluble
13 | MTVDDIMVPRSEIIGIDINDDWKSILRQLSHSPHGRIVLYRDSLDDAISMLRVREAWRLMSEKKEFTKETMLRAADEIYFVPEGTPLSTQLVKFQRNKKKVGLVVNEYGDIQGLVTVEDILEEIVGDFTTSMSPTLAEEVTPQNDGSVIIDGTANVREINKAFNWHLPEDDARTVNGVILEALEEIPVAGTRVRIGEYDIDILDVQDNMIKQVKVFPVKPLRESVAELEHHHHHH | soluble
14 | MGSDKIHHHHHHMFVRVDISSLPLGKRMAQDIYDFDGHLLISKGIVVQESHLQQLRQRGYEYVYIQEEDEVNENSLNQGIAYLTDKQLPKAFSASVEGMRQMMDKVSSRHMIKLGEVEECIDLVYDHVLQTYNVLKHLQDLRNKDEYTLQHSVSVGILSIKIGQSLGLDADKLKNLGIAGLLHDIGKSMISLDIINKPGPLDDKEFKEIKKHPVYGYQIVNEIKLEDQDIPQAVLQHHEHQDGNGYPLGIRGDRINSFARIIAVADVFDALTSDRAYRPRMSLLQAVDIIIKSSCGQLDPLASRRLLSYVLDITTGEKVILSTGEEATVILKNEVDPARPLVRIGDNFLDLKTNRDVFIKDFAR | not soluble
